B1: Gonadotropin Regulated Testicular Helicase (GRTH/DDX25), wild type, V5-His tagged [human] / Protein Kinase A catalytic subunit alpha (PKA-Cα), overexpressed [not stated] (parent complex)
chain 1: MASLLWGGDAGAAESERLNSHFSNLSQPRKNLWGIKSTAVRNIDGSINNINEDDEEDVVDLAANSLLNKLIHQSLVESSHRVEVLQKDPSSPLYSVKTFEELRLKEELLKGIYAMGFNRPSKIQEMALPMMLAHPPQNLIAQSQSGTGKTAAFVLAMLSRVNALELFPQCLCLAPTYELALQTGRVVEQMGKFCVDVQVMYAIRGNRIPRGTDITKQIIIGTPGTVLDWCFKLKLIDLTKIRVFVLDEADVMIDTQGFSDHSIRIQRALPSECQMLLFSATFEDSVWHFAERIIPDPNVIKLRKEELTLNNIRQYYVLCEHRKDKYQALCNIYGSITIGQAIIFCQTRRNAKWLTVEMIQDGHQVSLLSGELTVEQRASIIQRFRDGKEKVLITTNVCARGIDVKQVTIVVNFDLPVKQGEEPDYETYLHRIGRTGRFGKKGLAFNMIEVDELPSLMKIQDHFNSSIKQLNAEDMDEIEKIDY
chain 2: not shown

Variants of: B1
Assay: co-immunoprecipitation (IP: V5 antibody), western blot band intensity quantified with ImageJ; COS-1 cells co-transfected with GRTH-V5 and PKA-Cα; read off a plot

**Q.** chain 1 T239A was tested. Which response did it give?
**A.** ~1.3 Arbitrary units

**Q.** chain 1 E165A was tested. Which response did it give?
**A.** ~1.2 Arbitrary units

**Q.** For chain 1 E165A, chain 1 K240A, which response is on record?
**A.** ~1 Arbitrary units

Variants of: B1
Assay: co-immunoprecipitation (IP: PKA-Cα antibody), western blot band intensity quantified with ImageJ; COS-1 cells co-transfected with GRTH-V5 and PKA-Cα; read off a plot

**Q.** How did the response turn out when chain 1 T239A was run?
**A.** ~1.2 Arbitrary units

**Q.** With chain 1 E165A as the variant, how does the response read?
**A.** ~1.2 Arbitrary units

**Q.** For chain 1 E165A, chain 1 K240A, which response is on record?
**A.** ~1.2 Arbitrary units

Reference: article PMC6491591 (2019)
